Laboratory results reported in PMC10316081.

Columns and labels:
[1] = target: Rag GTPase heterodimer (RagA-RagC), wild type (human) (UniProt Q7L523)
[2] = target: Rag GTPase heterodimer (RagA-RagC), wild type (human) (UniProt Q7L523); remark: listed apart in the source
[3] = target: RagA-RagC(D201R, D205K) (human) (UniProt Q7L523)
RagA-RagC(D201R) (human) = RagA-RagC(D201R) (human) (UniProt Q7L523)
RagA-RagC(D205K) (human) = RagA-RagC(D205K) (human) (UniProt Q7L523)
RagA-RagC(D201A) (human) = RagA-RagC(D201A) (human) (UniProt Q7L523)
RagA-RagC(D205A) (human) = RagA-RagC(D205A) (human) (UniProt Q7L523)
[4] = target: RagA-RagC(D201A, D205A) (human) (UniProt Q7L523)

“GATOR1[Depdc5(Y775A, R1407D)] (from UniProt O75140 1-1603; Q8WTW4 1-380; Q12980 1-569) (complex)” gave a kcat of GATOR1-stimulated single turnover GTP hydrolysis by the Rag GTPase heterodimer (singly loaded with GTP) [1] of 0.009 min⁻¹, a KM of GATOR1-stimulated multiple turnover GTP hydrolysis, fold increase against GATOR1[Depdc5(Y775A)] (fold increase) [2] of 8 and a kcat of GATOR1-stimulated multiple turnover GTP hydrolysis, fold decrease against GATOR1[Depdc5(Y775A)] (fold decrease) [2] of 8. It also gave a kcat/KM of GATOR1-stimulated multiple turnover GTP hydrolysis, fold decrease against GATOR1[Depdc5(Y775A)] (fold decrease) [2] of 64.
Work on “GATOR1[Depdc5(Y775A)] (from UniProt O75140 1-1603; Q8WTW4 1-380; Q12980 1-569) (complex)” yielded a kcat/KM of GATOR1[Depdc5(Y775A)]-stimulated multiple turnover GTP hydrolysis, fold decrease against wild-type Rag GTPases (fold decrease) [3] of 80, a kcat/KM of GATOR1[Depdc5(Y775A)]-stimulated multiple turnover GTP hydrolysis, fold decrease against wild-type Rag GTPases (fold decrease) (RagA-RagC(D201R) (human)) of 7 and a kcat/KM of GATOR1[Depdc5(Y775A)]-stimulated multiple turnover GTP hydrolysis, fold decrease against wild-type Rag GTPases (fold decrease) (RagA-RagC(D205K) (human)) of 22. It also gave a kcat of GATOR1-stimulated single turnover GTP hydrolysis by the Rag GTPase heterodimer (singly loaded with GTP) [1] of 0.016 min⁻¹, a kcat/KM of GATOR1[Depdc5(Y775A)]-stimulated multiple turnover GTP hydrolysis, fold decrease against wild-type Rag GTPases (fold decrease) (RagA-RagC(D201A) (human)) of 2 and a kcat/KM of GATOR1[Depdc5(Y775A)]-stimulated multiple turnover GTP hydrolysis, fold decrease against wild-type Rag GTPases (fold decrease) (RagA-RagC(D205A) (human)) of 4. The kcat/KM of GATOR1[Depdc5(Y775A)]-stimulated multiple turnover GTP hydrolysis, fold decrease against wild-type Rag GTPases (fold decrease) [4] was 7 and the kcat of GATOR1-stimulated multiple turnover GTP hydrolysis by the Rag GTPase heterodimer (dual-loaded with GTP) [2] was 0.11 min⁻¹.
